In patent US20260242515A1 (DUALITY BIOLOGICS SHANGHAI, published 2026):

T1: Human ADAM9 protein (ACROBiosystems, Cat. No. AD9-H52H7) (human, UniProt Q13443 29-697)
T1 construct: Bought protein; also called Human ADAM-His protein; human ADAM9 antigen; not shown: His tag
T1 sequence (looked up): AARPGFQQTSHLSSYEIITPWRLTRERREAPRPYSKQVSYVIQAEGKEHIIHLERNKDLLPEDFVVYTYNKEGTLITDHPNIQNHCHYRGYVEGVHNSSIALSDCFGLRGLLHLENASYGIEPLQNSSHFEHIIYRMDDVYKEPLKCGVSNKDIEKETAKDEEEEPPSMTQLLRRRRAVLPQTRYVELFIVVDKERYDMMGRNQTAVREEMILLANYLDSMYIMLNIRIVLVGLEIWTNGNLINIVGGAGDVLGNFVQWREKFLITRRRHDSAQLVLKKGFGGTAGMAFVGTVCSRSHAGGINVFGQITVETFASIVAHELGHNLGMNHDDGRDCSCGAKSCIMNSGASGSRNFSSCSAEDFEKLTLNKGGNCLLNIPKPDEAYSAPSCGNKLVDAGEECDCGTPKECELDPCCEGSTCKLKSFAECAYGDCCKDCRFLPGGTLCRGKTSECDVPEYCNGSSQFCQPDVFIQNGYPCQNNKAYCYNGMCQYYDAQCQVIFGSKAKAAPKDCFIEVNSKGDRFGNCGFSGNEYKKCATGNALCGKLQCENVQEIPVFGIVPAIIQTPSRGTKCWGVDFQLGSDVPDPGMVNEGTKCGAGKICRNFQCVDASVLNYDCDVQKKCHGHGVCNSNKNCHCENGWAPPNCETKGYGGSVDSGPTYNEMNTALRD


Legend:
[1] = target: T1, Human ADAM9 protein (ACROBiosystems, …); test: indirect ELISA, human ADAM9-His coated at 1 ug/mL
Description: The plate was washed three times with PBST (PBS (pH 7.4) containing 0.05% Tween-20), followed by addition of 200 μL/well of blocking buffer containing 1% bovine serum albumin (BSA) diluted in PBST, and incubated at 37° C. for 1 hour for blocking. After blocking, the blocking buffer was discarded, and the plate was washed once with PBST buffer. The test antibody was diluted in PBST containing 1% BSA with a 3-fold serial dilution starting at 15 μg/mL across 11 doses, and added to the ELISA plate at 100 μL/well, followed by incubation at 37° C. for 1 hour. After incubation, the plate was washed three times with PBST, followed by addition of 100 μL/well of HRP-labeled goat anti-human secondary antibody (Rockland, Cat. No. 609-103-123) diluted in PBST containing 1% BSA, and incubated at room temperature for 45 minutes. The plate was washed six times with PBST, followed by addition of 100 μL/well of TMB chromogenic substrate (Suzhou Yacoo Chemical Reagent Co., Ltd., Cat. No. S0025), and incubated at room temperature in the dark for 10 minutes. The reaction was terminated by adding 50 μL/well of 1 M HCl, and the absorbance was measured at 450 nm using a microplate reader (Thermo, Ascent) for data analysis.

[2] = target: T1, Human ADAM9 protein (ACROBiosystems, …); test: SPR (Biacore 8K), antibody captured by anti-human Fc on CM5, ADAM9 as analyte
Description: Chip preparation: The mouse anti-human IgG (Fc) antibody (Cat. No. 29234600, Cytiva) was diluted to 25 μg/mL in immobilization buffer (10 mM sodium acetate, pH 5.0), specifically by adding 950 μL of the immobilization buffer to 50 μL of the mouse anti-human IgG (Fc) antibody. The dilution was used for immobilization in eight channels. First, the surface of the CM5 chip was activated with 400 mM EDC and 100 mM NHS at a flow rate of 10 μL/min for 420 seconds. Then, 25 μg/mL of the mouse anti-human IgG (Fc) antibody was injected into the test channels at a flow rate of 10 μL/min for approximately 360 seconds, with the level of immobilization at approximately 7000 to 14000 RU. Finally, the chip was blocked with 1 M ethanolamine at a flow rate of 10 μL/min for 420 seconds. The reference channels underwent the same procedures as the test channels.
Ligand capture: Antibodies Ab10, Ab15, Ab16, and hMAB-A (2I.2) were diluted to 4 μg/mL in running buffer (containing 10 mM N-(2-hydroxyethyl)piperazine-N-2-ethanesulfonic acid (HEPES), 150 mM sodium chloride (NaCl), 3 mM ethylenediaminetetraacetic acid (EDTA), 0.005% Tween-20, pH adjusted to 7.4) and injected into the test channels for human IgG (Fc) capture at a flow rate of 10 μL/min at approximately 200 RU. No ligand capture was performed in the reference channels.
Analyte multi-cycle analysis: Human and cynomolgus ADAM9 proteins (human ADAM9 protein purchased from ACRO, Cat. No. AD9-H52H7; monkey ADAM9 protein purchased from ACRO, Cat. No. AD9-C52H7) were diluted 2-fold in running buffer (Table 10). The diluted human or cynomolgus ADAM9 protein was sequentially injected into the test channels and the reference channels at a flow rate of 30 μL/min, with corresponding association and dissociation times. Both the association and dissociation steps were performed in the running buffer. After each concentration analysis, the chip was regenerated with 3 M magnesium chloride at a flow rate of 20 μL/min for 30 seconds to wash away the ligand and any undissociated analyte. For the next concentration analysis, the test channels required re-capture of the same amount of ligand.

Row | EC50 [1] [nM] | Top (OD450) [1] [OD450] | Kd [2] [nM] | koff [2] [s⁻¹] | kon [2] [M⁻¹ s⁻¹] | Binder
1 | 0.049 | 3.28 | 4.03 | 0.000697 | 173000 | Ab15 (antibody, human IgG1, kappa, V domains shown, Humanized anti-ADAM9 IgG1/kappa; also called Ab15-V (variable regions)) VH: QVQLQQPGAELKKPGASVKVSCKASGFTFPLYWMNWVRQRPGRGLEWIGRIIPIFGHTKYNEKFKDRATMTADESSSTAYMELSSLTSEDSAVYYCARGGYYYYPREGFLDYWGQGTSVTVSS VL: DIVMTQSPDSLSVSPGERATINCRSSQSVDYSGDSYMNWYQQKPGQSPRLLIYAASDRESGVPDRFSGSGSGTDFTLKISNVEEEDAATYYCQQSREDPFTFGQGTRVEIKR
2 | 0.042 | 3.36 | 5.01 | 0.000816 | 163000 | Ab16 (antibody, human IgG1, kappa, V domains shown, Humanized anti-ADAM9 IgG1/kappa; also called Ab16-V (variable regions)) VH: QVQLQQPGTEVVKPGASVKLSCKASGFTFPLYWMHWVRQRPGRGLEWIGRIIPIFGHTKYNEKFKNKATLTADESSSTAYMELRSLTSDDSAVYYCARGGYYYYPREGFLDYWGQGTSVTVSS VL: DIVMTQSPASLSVSPGERASISCRSSQSVDYSGDSYMNWYQQKPGQSPRLLIYAASDRESGVPDRFSGSGSGTDFTLKISRVEEEDAGTYYCQQSREDPFTFGQGTKVDIKR
